Results taken from patent US20110070238A1 (published 2011).

T1: LAG-3 protein as used in the Biacore analysis (partner not given) (UniProt P18627 23-434, limits assumed)
T1 sequence (looked up): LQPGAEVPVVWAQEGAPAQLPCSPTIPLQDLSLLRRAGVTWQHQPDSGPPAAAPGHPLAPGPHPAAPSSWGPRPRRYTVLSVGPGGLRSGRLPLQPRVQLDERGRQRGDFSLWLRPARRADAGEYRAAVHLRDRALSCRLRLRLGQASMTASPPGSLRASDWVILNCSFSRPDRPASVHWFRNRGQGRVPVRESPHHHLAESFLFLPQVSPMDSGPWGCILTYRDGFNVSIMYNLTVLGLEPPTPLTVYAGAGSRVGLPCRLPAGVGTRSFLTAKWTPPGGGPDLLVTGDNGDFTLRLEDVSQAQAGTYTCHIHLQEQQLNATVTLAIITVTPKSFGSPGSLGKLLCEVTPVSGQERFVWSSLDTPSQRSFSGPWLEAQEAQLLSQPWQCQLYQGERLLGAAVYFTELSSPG

B1: A9H12 (580.1E MM H12), murine IgG2a anti-human LAG-3 monoclonal antibody (antibody, V domains shown)
VH: QVQLKESGPGLVAPSQSLSITCTVSGFSLTAYGVNWVRQPPGKGLEWLGMIWDDGSTDYNSALKSRLSISKDNSKSQVFLKMNSLQTDDTARYYCAREGDVAFDYWGQGTTLTVSS
VL: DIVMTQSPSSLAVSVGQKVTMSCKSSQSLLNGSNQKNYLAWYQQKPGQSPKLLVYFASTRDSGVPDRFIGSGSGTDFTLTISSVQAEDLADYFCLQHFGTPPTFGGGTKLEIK
notes: Murine IgG2a from hybridoma; also called A9H12 LAG-3 mAb; hybridoma CNCM I-3755
B2: IMP731 (chimeric A9H12 with human IgG1 Fc region) (antibody, V domains shown)
VH: B1 VH
VL: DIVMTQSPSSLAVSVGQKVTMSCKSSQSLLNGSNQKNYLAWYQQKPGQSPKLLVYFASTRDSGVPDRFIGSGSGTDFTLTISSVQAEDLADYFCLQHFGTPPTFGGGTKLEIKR
notes: also called ImmuTune IMP731; IMP371 [sic]

Molecular target: T1, LAG-3 protein as used in the Biacore …
Experiment: Biacore (SPR)

Binder | Kd [nM] | koff [s⁻¹] | kon [M⁻¹ s⁻¹]
B1 | 0.829 | 0.00143 | 1.72e+06
B2 | 0.551 | 0.00112 | 2.03e+06
